The values that follow come from EP1141005B1.

Some targets named below: GAL4/HIF 71-826 (human); GAL4/HIF 1-813 (human); GAL4/HIF 531-584 (human); GAL4/HIF 776-826 (human); GAL4/HIF 526-826 (human); GAL4/Arnt 128-603 (UniProt P04386); GAL4/Arnt 128-774 (UniProt P04386).
Test in all cases: cell-based or functional assay
Test [1] addresses GFP-HIF-1α (in-frame fusion of green fluorescent protein with full-length HIF-1α) (Aequeora victoria; human) [GFP: P42212].
For test [2], the target named is HIF-1α (wild-type human HIF-1α expressed from pCMV4/HIF-1α) (human) (UniProt Q16665).
Sequence of HIF-1α (wild-type human HIF-1α expressed from pCMV4/HIF-1α) (human) (Q16665 whole entry): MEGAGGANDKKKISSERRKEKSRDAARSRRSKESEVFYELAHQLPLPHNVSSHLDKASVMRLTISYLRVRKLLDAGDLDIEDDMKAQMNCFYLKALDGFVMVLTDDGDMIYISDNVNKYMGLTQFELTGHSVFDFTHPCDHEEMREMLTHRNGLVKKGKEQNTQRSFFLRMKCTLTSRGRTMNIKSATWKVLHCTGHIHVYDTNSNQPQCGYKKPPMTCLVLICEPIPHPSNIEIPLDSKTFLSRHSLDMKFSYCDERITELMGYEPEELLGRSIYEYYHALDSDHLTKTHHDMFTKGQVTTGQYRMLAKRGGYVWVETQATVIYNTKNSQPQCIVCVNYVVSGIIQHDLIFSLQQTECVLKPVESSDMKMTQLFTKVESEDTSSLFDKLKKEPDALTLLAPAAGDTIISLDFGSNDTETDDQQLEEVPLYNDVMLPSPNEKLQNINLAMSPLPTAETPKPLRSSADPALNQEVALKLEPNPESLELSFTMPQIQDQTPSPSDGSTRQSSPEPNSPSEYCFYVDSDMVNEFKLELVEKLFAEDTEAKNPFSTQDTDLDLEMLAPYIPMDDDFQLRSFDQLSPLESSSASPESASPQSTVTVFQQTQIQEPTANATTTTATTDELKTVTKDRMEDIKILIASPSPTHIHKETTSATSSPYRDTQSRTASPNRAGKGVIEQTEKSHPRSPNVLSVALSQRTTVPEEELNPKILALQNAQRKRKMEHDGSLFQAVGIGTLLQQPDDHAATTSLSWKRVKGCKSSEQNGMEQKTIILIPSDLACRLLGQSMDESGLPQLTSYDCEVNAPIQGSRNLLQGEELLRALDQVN

As for “CBP (CREB binding protein, full-length mouse CBP expressed from pRc/RSV-mCBP-HA) (from UniProt P45481 1-2441)”, in test [1], the HRE-dependent reporter gene activity, COS7, hypoxia with CBP over the levels at normoxia turned out to be 15 fold and the HRE-dependent reporter gene activity, COS7, hypoxia, enhancement by coexpressed CBP came to 3 fold. Also, in the test with GAL4/HIF 71-826 (human), the luciferase activity, GAL4-responsive reporter, COS7, hypoxia with CBP against hypoxia without exogenous coactivators is 30 fold. In the test with GAL4/HIF 1-813 (human), this substance displayed a GAL4-responsive reporter gene activity, COS7, hypoxia, overexpression of CBP of 14 fold. In addition, the GAL4-responsive reporter gene activity, COS7, hypoxic cells, in the presence of CBP in the test with GAL4/HIF 531-584 (human) was 11 fold. Further, in the test with GAL4/HIF 776-826 (human), the GAL4-responsive reporter gene activity, COS7, in the presence of CBP worked out at 29 fold. In test [2], this substance gave a pT81/HRE-luc reporter gene activity, COS7 coexpressing HIF-1α and Arnt, hypoxia, against hypoxia without exogenous coactivator of 2 to 3 fold. This substance gave a GAL4-responsive reporter gene activity, COS7, transient expression of CBP with GAL4/HIF 526-826 (human) of 7 to 9 fold.

In turn, “HIF-1α (wild-type human HIF-1α expressed from pCMV4/HIF-1α) (from UniProt Q16665 1-826)” showed a GAL4-responsive reporter gene activity, COS7, normoxia with GAL4/Arnt 128-603 of 5 fold. For the same substance, the GAL4-responsive reporter gene activity, COS7, normoxia, against the GAL4 fusion protein alone with GAL4/Arnt 128-774 is 4 fold.

Consider “Ref-1 (nuclear redox regulator Ref-1 expressed from pCMV5/Ref-1) (from UniProt P27695 1-318) (enzyme)”, for which the results for the hypoxia-dependent activation of a GAL4-responsive reporter, COS7, Ref-1 coexpressed in the presence of CBP and SRC-1 with GAL4/HIF 531-584 (human) and with GAL4/HIF 776-826 (human) were 12 fold and 53 fold, respectively.

With “TIF2 (transcriptional coactivator TIF2) (from UniProt Q15596 1-1464)”, the pT81/HRE-luc reporter gene activity, COS7, hypoxia over the levels at normoxia in test [2] is 12 fold.
